Data as given in the DeepSol protein solubility set.

Experiment: soluble on expression in E. coli; label from the status in PepcDB or PDB records

Sequence | soluble on expression in E. coli
MDYEILFSDETMNYADAGTYCQSRGMALVSSAMRDSTMVKAILAFTEVKGHDYWVGADNLQDGAYNFLWNDGVSLPTDSDLWSPNEPSNPQSWQLCVQIWSKYNLLDDVGCGGARRVICEKELDD | soluble
MDYKMNNLQLEALLNETLSPQLIKDYCPNGLQVEGKVEVKRIVTGVTASMALIEAAIELKADALLVHHGYFWKNEPEAIRGMKGRRIRTLIQNDLNLYAYHLPLDIHPQLGNNAQLAQRLGICVDGGLEGHPQSVAMFGHFLQPLTGEELAHRIGQVLNRTPLHIAPDQADKLIETVGWCTGGGQDYIELAASRGLDAFISGEISERTTYSAREQSIHYFSAGHHATERYGIKALGEWLAENHGFDVTFIDIDNPVLEHHHHHH | soluble
MDYNNITEALQAFRTEKAYRHAPLRSCFFDMDGVLFDSMPAHARSWVEAAGECGIAAEPLDFYRWEGQKGSDTIKILFERGYGRLPTEKEIADMYGRKSQLFALYNSGNVIDDAPALVSDVCDRGLRIMLVTGSSQTDILQRLQRSYGDNFSPANMVTGADVHRGKPHPEPYLKALECVGMSPSEAFVVENAPLGVR | not soluble
MEADVEQQALTLPDLAEQFAPPDIAPPLLIKLVEAIEKKGLECSTLYRTQSSSNLAELRQLLDCDTPSVDLEMIDVHVLADAFKRYLLDLPNPVIPAAVYSEMISLAPEVQSSEEYIQLLKKLIRSPSIPHQYWLTLQYLLKHFFKLSQTSSKNLLNARVLSEIFSPMLFRFSAASSDNTENLIKVIEILISTEWNERQPAPALPPKPPKPTTVAN | soluble
MEAEGFPRLFHNFENVPEPKECKKVGSVPSYLTGTMLRNGPGMFTVGEEEYKHWFDGLGFMQRYHFEDGKMFYSARYLESEAYTKTVEAQRIVAGTFGTLSFPDPCKTIFSKYFSEFMNHSEKHDNSNVAFTPVGDSLYACTETPHMYRVDLDTLKTLEAADFSKFVAVHSCTAHQLYDENGDVYNIGSRFGPESAHVFTVTKNPKNQKSENDHSWEHTSKIGEIKASDPLYPTYMHSFGMSENYLVMFESPVRLHLQKYLLSEFVRATYHDCLEWHGDKDVSIFILNKKTGEQLPLTLKMNPFFTFHHANTFEKDGCLVMDYCRIENAGKFDTLLISNMKTGEFQYDAKFLPYLTRVIVPMSVSSSAKPGDNLLKSVPWASGCTSILQDDGSIRLTERRVCETSMEFPRYHWEKINMKEYRYVFGSTVFGRIDGNLAGVVKADLKFGNHLIWNRENPHQICGEPIFVPNPEGIEEDDGILIVPIMSSSEKQVPFVLILDAKTLEETARFEIPEARIPLGFHAFYKPKN | not soluble
MEALILEPSLYTVKAILILDNDGDRLFAKYYDDTYPSVKEQKAFEKNIFNKTHRTDSEIALLEGLTVVYKSSIDLYFYVIGSSYENELMLMAVLNCLFDSLSQMLRKNVEKRALLENMEGLFLAVDEIVDGGVILESDPQQVVHRVALR | soluble
MEATRNETKPVWVYIIFRKNHCSGHEKMTVNISFDGPIFWKRQVAYIYCCSCHFDEHEGPLMAILEKFEQRVERVCLVDKPVDYPFLPDSLFSYMANKMPKLQFIYLRELDLEKINRGTVVELANHPNLKKVIVHLCRNYEVLEDFRNLPQLLVVKGEIMGLKVSTW | not soluble
MECPKEIVLLMHSYFDGDLQPEGEQQLKEHLRSCAACAAHFHELKKTVAFLQYAAHVAAPPSFAAKVMEAMPKERKTARLRRFMHRHPLLTAASLFLALTLGSLASSWGERGAFSVSADEHVIIRDHTVIVPKGETVKGDIVVRNGSIRIEGTVDGDVTVIHGKKYMASAGQVTGEVEEINQVFEWIWYNIKERFNRALQSIE | not soluble
MEDGPNEFRAWLAEIGPSWIDVFPREEDPTPEYILFGGRWNSSERDEGRRIIVNVACLLFPEESTSACQREIWTSSQYELGNLETQTTLSLRSSCPDGAKLVGGGCSTEAVGSYRYVQVIQSGFAQDDPDAWLCSWANTSDDEQTQAMAMAYCLHEEPLPAECGCCPTMAETITVKREDEPLRFGPNRLEVSCDEGQTLVLGNCTLDVDDITPFRDVTMFRSGFPPTEEHPDGDRSRWGCSWYNPTGMAPRAIATAVCLPAE | not soluble
MEDILMPEGEKVSMENFALLRVLGKGAYGKVFLVRKVGGKDHNTIYAMKVLRKTRVLTKQKTLEHTMAERQVLERLRGTPFLVNLFYAFQTDTKLHIVMEYVRGGELFTHLCSRGHFDLEAARFVIAELVVAIDSLHQRKVIYRDLKLENILLDEEGHVKLTDFGLSKLFLPGELDRANSYCGTIEYMSPEVINRPEGGYSDVVDWWSLGVISFELLTGCSPFTVDGAQNSSKDIAKRIMTKKVPFPKTMDVDARDFIGQLLEKKLEKRLGYNGVDEIKNHKFMSSIDWDAAVKRTLKPVIVPRIGHDLDTQFFSAEFTSQPPLYSPAESPLNANTLFRGYSYVSPSVIFANDNVIGEELMAEDVNALLASSSFFAKYKLDKSDAGLLGKGAFSVVRRCERVVDGAQFAVKIVSQKFASQAQREARILEMVQGHPNIVQLHDVHSDPLHFYLVMEILTGNELLERIRKLERFTESEAADIMRQLVSAVKYLHDKRIVHRDLKPENILFESIDSSARLRLVDFGFARLLPNSMEQQLKSVQVLRKMTPCFTLQYAAPEVLDVGDSQPEYNEQCDLWSLGVVLFTMLSGQVPFHARSRQESATEIMQRICRAEFSFTGDAWTNVSADAKNLITGLLTVDPKKRLSMQELTAHMWLKSSASMDTPLQTPSILPSSADETFNETLRAFLHANRDGFHLLDVAAAPLMKRRGIKRQSGDKDASGNSKNSRVTQFECLPEEQEAEMTSSTSRPSNLGMMNYREPNSGTIRETRGSDSS | not soluble
MEDRREALISKLMNMLVENGFSVSGTGFQPVATFDIVARRDVERYILKVLYNIDTLKQSTAYQLIKLAKLLRATAAIIGERTGNGQLEDGVVYYRHGVPISSVNTFESYLNGERPYIYSGPGGFYVRINGELLRERRNELNLSIGNISSYLGVSRRSVSLYENGSAATIDIFIRLRNILKADIVDHIDLFRINSTEINFEEKISDEYIARIIWLLQKYGLDTRPIFKVPFDIVAKDSDEISLIAALIGDAPEPERVRILKKISDVFEDDAFLVSKSNTYRESIGGCAVLTISDLESIEDKDALIGKIEKRAK | not soluble
MEEAKNPWLTGNLVEEANSQGIIQNRSIFNLFANTNIYIFFRHWTTIYERLLEIKQMNERVTKEINTRSTVTFAKDLDLLSSQLSEMGLDFVGEDAYKQVLRLSRRLINGDLEHQWFEESLRQAYNNKAFKLYTIDKVTQSLVKHAHTLMTDA | not soluble
MEEIILVFPKEELEVRAMEFKKEFLDCGERIINGSFKLDYVDDYAEWLKIIRNNLKKETVNPKWVVSTTFFAVRKSDNKIIGIVNLRHYLNDFYKNSGHIGYSVRPSERRKGYASEILRQILEYAREKGLTEVCVVCKKENEASRKTILKNGGILSRTFKDEGEEHEAFYINTKKH | not soluble
MEEKFTPEEQAIYDEHFASDRPVELVEPEQVREAFNAEESSQQPSVEPLQEQPNSGVIEQERQARQKAEQKAMEARELAIEFAQKYAQMQEEAVRRRDENIPTLEDDPKAHVAWLSHKVQEQQKLLDEFSRIRESQERLNQEEYERQKLGDYFEEAKAQVQDKYPDLDSITDYLYERADSVLQAQADLYPQWKDPAARQQQIGAELRQICQQCQKAGINPIEVLVQKAKAFGYSGAPIKDEVETLQERSQAARTLTARGGQVPTGGMDMRTLFSMPDAEFAVWVEKNPEKFEQIMSRT | not soluble
MEEKLVTLAILTYTKAQILKNVLENEGIETYIHNVNQIQPVVSSGVRLRIKESDLPRALKITESSAWLAESIVGEKTPKVEHRTKKVLIPVDFSNYSMKACEFGFNFAKSFDAEVILLHVYFTPIYASSLPYGDVFNYQISDEETVKNVLHKVHDDLNTLSEKIKQKVASGEFPDVKYTCVLREGIPEEEILRYNKEHRPRIIIMGTRGKNQKDIDLIGSVTAEIIERSHTTVLAIPENTPFNRFNEVKRIAFMTNFDQRDLIAFDSFINGLSPFHFSVSLIHLSDVKDTWNEIKLAGIKDYFQKQYPDLEIHYDVVMSNDFLNSLDNYIKTNQIDIITLTSYKRNIFSRLFNPGIARKMIFHSDTPLLVING | not soluble
MEELKELRKEIDRIDEEILRLLNERAKLAKRIGEIKSKANLPIHVPEREREIFEKILRLNKEVYGGVFPQEALVHIYREIISACLSLEKKIKVAYLGPKATFTHQAALEFFGFSAHYTPCSTIRDVFVEVETKRADYGVVPVENTIEGVVNYTLDMFLESDVKIAGEIVIPITLHLLSASDSIENVEKVYSHKMALAQCRSWLEKNLPSVQVIEVESTAKACEIALEDERAGAVASEVAAYTYHLNILARNIQDSGDNFTRFLVIAKRDLKPTGSDKTSILFGVKDEPGALYKALEVFYKHGINLTKIESRPSKKKAWDYVFFVDLEGHKEEERVEKALKELKEKTQFLKVLGSYPKALLQE | soluble
MEENTEQRVDLTLFSEKIQELKDQIASVIVGQEQTVDLVLAAILANGHVLIEGVPGVAKTLLARLTARLIDADFSRIQFTPDLMPSDVLGTTVFNMKTNDFDFHQGPIFADIVLVDEINRAPAKTQAALFEVMEERQISIDGITHKMGELYTILATQNPVEQEGTYKLPEAQLDRFLMKITMDYPSLEEEVDILERHHTNASLIKLDDIKPAITKEELLSLRAFMNQVFVDRTLLQYIALIVQQTRTSKAVYLGASPRASVAMLQASKAYALLQGRDFVTPEDIKFVAPYVLQHRLILTAEAEMEGYSPVKVTQRLIDKVEVPKLEHHHHHH | soluble
MEESDQTVLLPNVENEIGSFYHDMPDEKLLRHIKAIFDEASLRPSLTKNVPSTSSQVTEELNKVEIRDPKHEMQDEQYLSIFENPSGVQYNQADGSFSWNNRFHSDNSVQYINVLNNYGCEGADTLLNQSDSSDETDESIEERRTPRGNRQSRSNLTSKPSAKYWTKRGGDPIVNCSCSICGSKFSTIRCLLDHRHQEHSLKDMMMCGLCGKEFSKRTHIYLHLSQEYKVYHCDGCNTSFASKWHLEKHRCKENETIDDKKRRRTGRVNAEEIKVIKEEIQDEEFGGVVLSNENHEKSKEDRFQFACVLCGKKYQHYHWLLKHRTKCLETTDEIQEFKCNVCYRRYNSSFWFERHMEKCNSSTALPPALLDQTISCPNCHKKYQNEYWFDYHKKHCPDITPALSDVHLDVNSLRDRRPREGEISVVPDVNLFGIEPEREDDNDDDEDADATISSSSSSTGNLVNIPCSICGKFCVGVASLLHHRKQIHGLTAMLTCGVCTKKFNTLSSIRRHMSMEYSIFRCQQCGRNCIDRTTLDRHECFKPYKIRDKRLFNIQNISVLKCPDCRATFANLNVLSEHRKTCQYGNVFDNIQQPGSSSLRQHHRSDTNGAALQRKITSRVRLDSNTPEKWTCRDCHASFHNLQALCSHRHESHGKEMFQCNNCSETLPNYRALHDHNMMHCRNNRSTNETTTRRYSEEDINYDYMDNVQIFVVEESEIFIPIQPHFSRK | not soluble
MEETRPIDGLTDEDIREILTRYKKIALVGASPKPERDANIVMKYLLEHGYDVYPVNPKYEEVLGRKCYPSVLDIPDKIEVVDLFVKPKLTMEYVEQAIKKGAKVVWFQYNTYNREASKKADEAGLIIVANRCMMREHERLLGEK | soluble
